According to patent publication US20260167731A1 (DOMAIN THERAPEUTICS, published 2026):
“And” between values parts separate entries of the source, which are not always exact repeats. Equal values may be shown once. Values belong to the binder of their own block, whether it stands above or below them.

Experiments:
hCCR8 SNAP-tag [1] = molecular target: T1, hCCR8 SNAP-tag (human, UniProt P51685 1-355, SNAP-tag labelled with Lumi4-Terbium); assay: cell-based or functional assay
hCCR8 SNAP-tag [2] = molecular target: T1, hCCR8 SNAP-tag; assay: HTRF Tag-lite, inhibition of hCCL1-AF647 binding to SNAP-tag hCCR8 on HEK-293
Protocol: The inhibition of CCL1 binding to hCCR8 was evaluated with the Tag-Lite® technology from Cisbio (Revvity). Human CCR8 is engineered with a SNAP-tag at the N-terminus of the GPCR. hCCR8 SNAP-tag is transiently transfected on HEK-293 cell line using FuGene® (Promega, Madison, WI, USA). 48 hours after transfection, cells are labeled with the substrate Lumi4-Terbium® (Cisbio, Codolet, France) which covalently reacts with the SNAP-tag, for 1 h at 37° C. […] The Kd is previously obtained in a saturation binding assay on the same cells. […] The plate is next incubated at 21° C. for 2 h. Detection of HTRF signal is performed on the multiplate reader EnVision (PerkinElmer, Waltham, MA, USA). The HTRF (665/620) ratio is calculated by EnVision software, the data exported are considered as the total binding. The specific binding is calculated then by subtracting the non-specific signal from the total binding. The Ki and IC₅₀are calculated using the “One site—Fit Ki” and “One site—FitlogIC50” from GraphPad Prism 9 (Graphpad Software, San Diego, CA, USA), respectively.

human CCR8 [3] = molecular target: T2, human CCR8 (human, UniProt P51685 1-355); assay: flow cytometry, hCCR8 transfected CHOK1 cells
T2 construct: also called hCCR8; hCCR8_P51685
Protocol: (§1) The same staining protocol was applied on human CCR8 transfected CHO cell line versus wild type CHO cell line, cutaneous T cell lymphoma HUT78 cell line and human activated T cell model.
(§2) Briefly, 1·10⁵ cells per well in a 96 well plate were incubated with a dilution of unconjugated anti-CCR8 mAb at 10 μg/mL then diluted at 1/3.33, 4 dilution points (during 30 min at 4° C.). In human activated T cells model, prior to mAb incubation, cells were first incubated with 200 nM of hCCL1 (R&D Systems, Minneapolis, MN, USA) or buffer PBS (Invitrogen by Thermofisher Scientific, Illkirch-Graffenstaden, France) supplemented by 2% Fetal Bovine Serum (Invitrogen by Thermofisher Scientific, Illkirch-Graffenstaden, France) and 2 mM EDTA (Invitrogen by Thermofisher Scientific, Illkirch-Graffenstaden, France) during 1 hour at 4° C. To determine EC50 value, 8 concentrations of anti-CCR8 mAb were tested. Unbound antibodies were washed away with PBS (Invitrogen by Thermofisher Scientific, Illkirch-Graffenstaden, France) supplemented by 2% Fetal Bovine Serum (Invitrogen by Thermofisher Scientific, Illkirch-Graffenstaden, France) and 2 mM EDTA (Invitrogen by Thermofisher Scientific, Illkirch-Graffenstaden, France). Subsequently, cells are centrifuged (5 min at 400 g) and bound antibody is detected with F(ab′)₂-Goat anti-Mouse IgG (H+L) Cross-Adsorbed Secondary Antibody, Alexa Fluor 488 (dilution 1/500) (Invitrogen by Thermofisher Scientific, Illkirch-Graffenstaden, France) or with F(ab′)₂-Goat anti-Human IgG Fc Secondary Antibody, PE (Invitrogen by Thermofisher Scientific, Illkirch-Graffenstaden, France) (dilution 1/1000) at 4° C. for 30 min. Detection reagent is washed away and cells are centrifuged (5 min at 400 g) and resuspended in 30 μL PBS. Bound detection antibody is quantified on a MacsQuant16 (Miltenyi, Gladbach, Germany) (B1 or B2 channel, 5000 events per acquisition). During the experiment, the respective isotype mAb controls (mouse IgG1, mouse IgG2a, mouse IgG2b, mouse IgG3 or human IgG1) (Biolegend, Amsterdam, The Netherlands) are included to exclude any unspecific binding events.

human CCR8 [4] = molecular target: T2, human CCR8; assay: cell-based or functional assay
human CCR8 [5] = molecular target: T2, human CCR8; assay: flow cytometry, inhibition of hCCL1-AF647 binding to hCCR8 CHO cells
Protocol: The hCCR8 transfected CHO cell line was dispatched at a density of 1·10⁵ per well in a 96-well plate. Cells were incubated for 30 min at 4° C. with or without anti-CCR8 mAb tested at 10 μg/mL then diluted at 1/3. Unbound antibodies were washed away with PBS (Gibco, Villebon-sur-Yvette, France) supplemented by 2% Fetal Bovine Serum (Invitrogen by Thermofisher Scientific, Illkirch-Graffenstaden, France) and 2 mM EDTA. […] After washing unbound ligands, CCL1 bound detection is quantified on a MacsQuant16 (Miltenyi, Gladbach, Germany) (R1 channel, 5 000 events per acquisition).
For IC₅₀ determination, a concentration response curve is performed using 8 concentrations of mAb. Curves are fitted and IC₅₀ of CCL1 binding blocking activity is calculated using the sigmoidal dose-response (variable slope) model on GraphPad Prism 9 (GraphPad Software, San Diego, CA, USA).

[6] = molecular target: T3, pwt1, unmodified CCR8 related peptide (human, none (non-sulfated Y15, Y16, Y17)); assay: ELISA on coated CCR8 peptide (500 ng/mL), OD [cont.]
T3 construct: First 34 amino acids of human CCR8, synthetic; also called unmodified peptide
T3 sequence (peptide, as listed by the source): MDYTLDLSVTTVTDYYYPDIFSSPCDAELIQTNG
Protocol: (§3) The specific binding properties of antibodies were evaluated by ELISA with coated CCR8 related peptides (500 ng/mL) in carbonate/bicarbonate buffer. Different peptides were used as described in Table 1 (see Example 1). Each anti-CCR8 mAb was tested at 1 μg/mL then diluted at 1/10. After an incubation at room temperature during 90 min, unbound mAbs were removed by washings. […] After washings, 3,3′,5,5′-tetramethylbenzidine (TMB) (Interchim, Montlugon, France) was added for 15 min. Then the optical density (OD) was determined by using a multiplate reader (Tecan, Lyon, France) and correlated with mAb reactivity on the panel of coated peptides.

[7] = molecular target: pm1, modified CCR8 related peptide (human, sulfated tyrosine at Y15); assay: as above
pm1, modified CCR8 related peptide (human, sulfated tyrosine at Y15), sequence (peptide, as listed by the source): as above
Protocol: as §3

[8] = molecular target: pm8, modified CCR8 related peptide (human, sulfated tyrosines at Y15, Y16 and Y17); assay: as above
pm8, modified CCR8 related peptide (human, sulfated tyrosines at Y15, Y16 and Y17), sequence (peptide, as listed by the source): as above
Protocol: as §3

[9] = molecular target: pm5, modified CCR8 related peptide (human, sulfated tyrosines at Y15 and Y17); assay: as above
pm5, modified CCR8 related peptide (human, sulfated tyrosines at Y15 and Y17), sequence (peptide, as listed by the source): as above
Protocol: as §3

[10] = molecular target: pm3, modified CCR8 related peptide (human, sulfated tyrosine at Y17); assay: as above
pm3, modified CCR8 related peptide (human, sulfated tyrosine at Y17), sequence (peptide, as listed by the source): as above
Protocol: as §3

[11] = molecular target: pm2, modified CCR8 related peptide (human, sulfated tyrosine at Y16); assay: as above
pm2, modified CCR8 related peptide (human, sulfated tyrosine at Y16), sequence (peptide, as listed by the source): as above
Protocol: as §3

[12] = molecular target: pm4, modified CCR8 related peptide (human, sulfated tyrosines at Y15 and Y16); assay: as above
pm4, modified CCR8 related peptide (human, sulfated tyrosines at Y15 and Y16), sequence (peptide, as listed by the source): as above
Protocol: as §3

[13] = molecular target: pm6, modified CCR8 related peptide (human, sulfated tyrosines at Y16 and Y17); assay: as above
pm6, modified CCR8 related peptide (human, sulfated tyrosines at Y16 and Y17), sequence (peptide, as listed by the source): as above
Protocol: as §3

human CCR8 [14] = molecular target: T2, human CCR8; assay: flow cytometry, HUT78 cells (endogenous CCR8)
Protocol: as §1, §2
EC50 values were determined via nonlinear fit “log(agonist)vs.response−Variable slope (four parameters)” function of Graphpad prism. EC50 values were not constantly determined in the same experiments.

human CCR8 [15] = molecular target: T2, human CCR8; assay: cell-based or functional assay; remark: listed apart in the source

B1: Ref #1 (TPP-21360 of WO 2021/260210) (antibody, human IgG1, V domains shown)
VH: EVQLLESGGGLVQPGGSLRLSCAASGFTFSSYGMHWVRQAPGKGLEWVSAINWNGGSTGYADSVKGRFTISRDNSKNTLYLQMNSLRAEDTAVYYCARGHHSGYDGRFFDYWGQGTLVTVSS
VL: QSVLTQPPSVSGAPGQRVTISCTGSSSNIGAGYNVHWYQQLPGTAPKLLIYTNNRRPSGVPDRFSGSKSGTSASLAISGLRSEDEADYYCAAWDASLSGWVFGGGTKLTVL
notes: Benchmark; variable regions cloned into vectors encoding heavy and light chains of human IgG1, produced in CHO
% of internalization at 1 µg/ml (CCL1 at 300 nM = 100%), HTRF (hCCR8 SNAP-tag [1]): 126%
% of internalization at 10 µg/ml (CCL1 at 300 nM = 100%), HTRF (hCCR8 SNAP-tag [1]): 111%
IC50 (hCCR8 SNAP-tag [2]): 0.45 µg/mL
Ki (hCCR8 SNAP-tag [2]): 0.23 µg/mL
% positive cells (human CCR8 [3]): 75.1%
IC50, CCL1 induced hCCR8 Gi2 signaling (BRET, HEK-293) (human CCR8 [4]): 0.101 µg/mL and 0.675 nM
IC50 (human CCR8 [5]): 0.65 µg/mL

B3: Ref #3 (Anti-CCR8-1 of US 2021/0238292 A1) (antibody, human IgG1, V domains shown)
VH: QVQLVQSGAEVKKPGASVKVSCKASGYTFTSYYMHWVRQAPGQGLEWMGIINPSGGSTSYAQKFQGRVTMTRDTSTSTVYMELSSLRSEDTAVYYCARAVRNRFRFDYWGQGTLVTVSS
VL: QSALTQPASVSGSPGQSITISCTGTSSDVGSYNLVSWYQQHPGKAPKLMIYEVSKRPSGVSNRFSGSKSGNTASLTISGLQAEDEADYYCSSYAGSSTFVVFGGGTKLTVL
% of internalization at 1 µg/ml (CCL1 at 300 nM = 100%), HTRF (hCCR8 SNAP-tag [1]): 100%
% of internalization at 10 µg/ml (CCL1 at 300 nM = 100%), HTRF (hCCR8 SNAP-tag [1]): 90%

B4: Ref #4 (137-H3L2 (LM-108) of WO 2022/078277) (antibody, human IgG1, V domains shown)
VH: EVQLVESGGGLVQPGGSLKLSCAASGFTFNTYAMNWVRQASGKGLEWVARIRSKANNYATYYADSVKDRFTISRDDSKNTLYLQMNNLKTEDTAVYYCVRDRSRGEDYAMDYWGQGTLVTVSS
VL: DIVMTQSPLSLPVTPGEPASISCRSSKSLLHSNANTYLYWFLQKPGQSPQLLIYRMSNLASGVPDRFSGSGSGTAFTLKISRVEAEDVGVYYCMQHLEYPFTFGQGTKLEIK
% of internalization at 1 µg/ml (CCL1 at 300 nM = 100%), HTRF (hCCR8 SNAP-tag [1]): 95%
% of internalization at 10 µg/ml (CCL1 at 300 nM = 100%), HTRF (hCCR8 SNAP-tag [1]): 103%

Results, then the binder that gave them:

binding result [6]: binds
binding result [7]: binds
binding result [8]: binds
binding result [9]: binds
binding result [10]: binds
binding result [11]: binds
binding result [12]: binds
binding result [13]: binds
% of internalization at 1 µg/ml (CCL1 at 300 nM = 100%), HTRF (hCCR8 SNAP-tag [1]): 44%
% of internalization at 10 µg/ml (CCL1 at 300 nM = 100%), HTRF (hCCR8 SNAP-tag [1]): 36%
IC50 (hCCR8 SNAP-tag [2]): 0.04 µg/mL
Ki (hCCR8 SNAP-tag [2]): 0.02 µg/mL
% of labelled cells (human CCR8 [14]): 88%
EC50 (human CCR8 [14]): 0.2 nM
IC50, CCL1 induced hCCR8 Gi2 signaling (BRET, HEK-293) (human CCR8 [4]): 0.034 µg/mL and 0.227 nM
hCCL1 (100 nM) residual response in %, Protocol #2, mAb 0.08 µg/mL ([…] nM) (human CCR8 [15]): 77%
hCCL1 (100 nM) residual response in %, Protocol #2, mAb 0.4 µg/mL (2.67 nM) (human CCR8 [15]): 66%
hCCL1 (100 nM) residual response in %, Protocol #2, mAb 10 µg/mL (66.7 nM) (human CCR8 [15]): 41%
hCCL1 (100 nM) residual response in %, Protocol #3, mAb 0.05 µg/mL (0.33 nM) (human CCR8 [15]): 73%
hCCL1 (100 nM) residual response in %, Protocol #3, mAb 0.5 µg/mL (3.33 nM) (human CCR8 [15]): 52%
hCCL1 (100 nM) residual response in %, Protocol #3, mAb 5 µg/mL (33.3 nM) (human CCR8 [15]): 37%
B2: humanized anti-CCR8 mAb 2-15 (antibody, human IgG1, kappa, V domains shown)
VH: QVQLQQSGPEVVKPGASVKVSCKTSGYTFTEYTIHWVRQSHGQSLEWVGGINPNNGNTRYDQKFKGRVTITIDKSSSTAYMELRSLTSEDTAVYYCARVARSSGSGPYAMDYWGQGTTVTVSS
VL: DVVMTQSPLSLPVTLGDQASISCRCSQSLLHTNGDTYLHWYLQRPGQSPRLLIYKVSNRFSGVPDRFSGSGSGTDFTLKISRVEAEDVGVYFCSQSTHVPYTFGGGTKVEIKR
notes: Humanized, human IgG1 / kappa

binding result [6]: binds
binding result [7]: binds
binding result [8]: binds
binding result [9]: binds
binding result [10]: binds
binding result [11]: binds
binding result [12]: binds
binding result [13]: binds
IC50 (hCCR8 SNAP-tag [2]): 0.09 µg/mL
Ki (hCCR8 SNAP-tag [2]): 0.05 µg/mL
% of labelled cells (human CCR8 [14]): 23%
IC50, CCL1 induced hCCR8 Gi2 signaling (BRET, HEK-293) (human CCR8 [4]): 0.029 µg/mL and 0.194 nM
hCCL1 (100 nM) residual response in %, Protocol #2, mAb 0.08 µg/mL ([…] nM) (human CCR8 [15]): 62%
hCCL1 (100 nM) residual response in %, Protocol #2, mAb 0.4 µg/mL (2.67 nM) (human CCR8 [15]): 38%
hCCL1 (100 nM) residual response in %, Protocol #2, mAb 10 µg/mL (66.7 nM) (human CCR8 [15]): 30%
hCCL1 (100 nM) residual response in %, Protocol #3, mAb 0.05 µg/mL (0.33 nM) (human CCR8 [15]): 94%
hCCL1 (100 nM) residual response in %, Protocol #3, mAb 0.5 µg/mL (3.33 nM) (human CCR8 [15]): 63%
hCCL1 (100 nM) residual response in %, Protocol #3, mAb 5 µg/mL (33.3 nM) (human CCR8 [15]): 39%
B5: humanized anti-CCR8 mAb 2-12 (antibody, human IgG1, kappa)
heavy: not shown
light: DIVMTQAAPSLSVTPGESASISCTSSKSLLHSNGNTYLYWFLQKPGQSPQLLIYRMSNLASGVPDRFSGSGSGTAFTLKISRVEAEDVGVYYCMQHREYPFTFGSGTKLEIKRTVAAPSVFIFPPSDEQLKSGTASVVCLLNNFYPREAKVQWKVDNALQSGNSQESVTEQDSKDSTYSLSSTLTLSKADYEKHKVYACEVTHQGLSSPVTKSFNRGEC
notes: Humanized, human IgG1 / kappa, produced in CHO
